Data from patent US20200123499A1 (MIT, published 2020).

Target: T1, DPY-22 PQ-rich domain (C. elegans, UniProt Q20497 2142-3498, limits assumed)
T1 construct: domain: PQ-rich domain; Expressed in yeast from a Clontech two-hybrid bait or prey plasmid, so fused to a Gal4 BD or AD; also called C-terminal PQ-rich domain of DPY-22; MED12/DPY22
T1 sequence (looked up): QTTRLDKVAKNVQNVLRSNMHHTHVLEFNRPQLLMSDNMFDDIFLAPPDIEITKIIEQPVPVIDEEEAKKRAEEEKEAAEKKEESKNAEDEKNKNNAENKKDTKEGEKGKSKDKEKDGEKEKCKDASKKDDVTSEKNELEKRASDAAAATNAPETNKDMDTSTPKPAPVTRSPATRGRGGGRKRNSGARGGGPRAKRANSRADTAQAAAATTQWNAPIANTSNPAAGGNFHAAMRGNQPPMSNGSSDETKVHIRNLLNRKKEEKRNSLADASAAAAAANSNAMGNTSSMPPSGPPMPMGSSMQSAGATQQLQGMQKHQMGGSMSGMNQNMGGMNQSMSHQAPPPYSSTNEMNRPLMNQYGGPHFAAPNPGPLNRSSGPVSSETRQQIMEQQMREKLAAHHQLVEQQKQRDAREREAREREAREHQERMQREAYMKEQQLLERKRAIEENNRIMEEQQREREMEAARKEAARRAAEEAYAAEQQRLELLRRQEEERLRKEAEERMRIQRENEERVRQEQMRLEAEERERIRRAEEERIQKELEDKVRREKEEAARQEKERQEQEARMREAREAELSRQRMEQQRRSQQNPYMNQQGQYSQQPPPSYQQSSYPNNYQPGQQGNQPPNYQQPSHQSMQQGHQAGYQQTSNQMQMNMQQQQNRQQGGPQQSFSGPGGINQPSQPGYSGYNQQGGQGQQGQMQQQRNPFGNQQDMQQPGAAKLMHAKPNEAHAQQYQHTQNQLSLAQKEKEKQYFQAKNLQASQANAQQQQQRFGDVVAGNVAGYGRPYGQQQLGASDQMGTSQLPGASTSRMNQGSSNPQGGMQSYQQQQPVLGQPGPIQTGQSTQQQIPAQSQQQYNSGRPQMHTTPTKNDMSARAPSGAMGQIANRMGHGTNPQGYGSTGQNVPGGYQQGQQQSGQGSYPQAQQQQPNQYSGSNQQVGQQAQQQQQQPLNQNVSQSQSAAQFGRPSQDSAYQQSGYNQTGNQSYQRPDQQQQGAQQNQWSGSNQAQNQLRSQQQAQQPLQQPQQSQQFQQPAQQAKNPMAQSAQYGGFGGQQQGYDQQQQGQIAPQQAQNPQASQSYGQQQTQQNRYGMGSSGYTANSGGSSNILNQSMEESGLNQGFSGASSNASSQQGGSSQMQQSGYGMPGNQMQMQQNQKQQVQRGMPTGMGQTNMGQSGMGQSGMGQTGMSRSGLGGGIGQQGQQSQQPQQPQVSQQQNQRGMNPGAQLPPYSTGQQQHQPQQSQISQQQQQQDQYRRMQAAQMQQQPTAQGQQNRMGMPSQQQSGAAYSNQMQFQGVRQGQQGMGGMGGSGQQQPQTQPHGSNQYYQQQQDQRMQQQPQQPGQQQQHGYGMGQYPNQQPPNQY
Test: yeast two-hybrid
Protocol: The yeast two-hybrid assay was performed following the manufacturer's protocol (Clontech). Briefly, fresh Yeast Gold colonies (<1 week old) were cultured in YPD liquid medium at 30° C. to the O.D.600 of 0.5, harvested, washed, and resuspended in 1.1×TE/LiAc. 100 ng of bait and prey plasmids were mixed with […] of denatured salmon sperm carrier DNA and were transformed into competent yeast cells in the presence of 1×PEG/LiAc. The cell mix was then plated on both -Leu-Trp and -Leu-Trp-His-Ade dropout plates and was allowed to grow and 30° C. for 2-3 days. Single colonies that grew on the double and quadruple dropout plates were resuspended in H2O and respotted to fresh dropout plates, which were grown at 30° C. for 2 days. Images of the respotted plates were captured using a Canon Powershot A590 digital camera (Canon) and processed by Photoshop CS4 software (Adobe).
Two let-19 alleles contain missense mutations, and all five of the dpy-22 alleles contain nonsense mutations that truncate the C-terminal PQ-rich domain (FIG. 3C). In vertebrates, Med12 interacts with transcription factors through the PQ-rich domain to promote gene expression and tissue development (37-41). To determine if Mediator might specifically promote I4 neurogenesis by interacting with bHLH proneural factors, we performed a yeast two-hybrid assay. […]

B1: HLH-3 (other)
chain: MTASTSSTPSTSTKIPSSSKSSVTKQTKQKRNERERKRVDQVNQGFVLLQERVPKAAGNKAKLSKVETLREAARYIQELQKQLGMSSTSFHNSMPADFPTPEQSPVYPQSVCSMMAQTPSPSYTSPYYPPPQMMSSNQHDMSSHYYQESSSSSASTSGDHHSFYSHTETY
notes: Yeast two-hybrid fusion (Gal4 BD or AD); also called ASCL1/HLH3; C. elegans homolog of Ascl1/Mash1
  binding result: no binding
